In publication PMC9876794 (2022) one finds Kd and binding score data, which are given here for 23 molecules.

The target of assay [1] is T1, SARS-CoV-2 spike RBD (WT) (Severe acute respiratory syndrome …, UniProt P0DTC2). The experiment in a line: BLI. In general terms: In BLI a coated tip is dipped into the sample, and binding shifts an interference pattern.
In assay [2] the target is T1, SARS-CoV-2 spike RBD (WT). The experiment in a line: ELISA. Also noted: unit not given here. For orientation: An ELISA detects its analyte on a solid surface through an enzyme-linked reagent.

B1: C2728 (antibody, V domains shown)
VH: QVQLVESGGGVVQPGRSLRLSCAASGFTFSSYGMHWVRQAPGKGLEWVAVIWYDGSNKYYADSVKGRFTISRDNSKNTLYLQMNSLRAEDTAVYYCARERPHPSITMIVPNNYGMDVWGQGTTVTVSS
VL: not shown
Regarding B1, in assay [1], binding was put at a Kd of 536 nM. Further, the binding score in assay [2] was 132.

B2: C2708 (antibody, V domains shown)
VH: EVQLVESGGVVVQPGGSLRLSCAASGFTFDDYAMHWVRQAPGKGLEWVSLISWDGGSTYYADSVKGRFTISRDNSKNSLYLQMNSLRAEDTALYYCAKDIEGGSGWSFDYWGQGTLVTVSS
VL: QSALTQPPSVSGSPGQSVTISCTGTSSDVGSYNRVSWYQQPPGTAPKLMIYEVSNRPSGVPDRFSGSKSGNTASLTISGLQAEDEADYYCSSYTSSSTVVFGGGTKLTVL
In the case of B2, binding in assay [1] was characterised by a dissociation constant (Kd) of 597 nM. This molecule displayed a binding score in assay [2] of 7040.

B3: C2716 (antibody, V domains shown)
VH: EVQLVESGGGLIQPGGSLRLSCAASGFIVSSNYMSWVRQAPGKGLEWVSVIYSGGSTYYADSVKGRFTISRDNSKNTLYLQMNSLRAEDTAVYYCARDLGSYGHFDYWGQGTLVTVSS
VL: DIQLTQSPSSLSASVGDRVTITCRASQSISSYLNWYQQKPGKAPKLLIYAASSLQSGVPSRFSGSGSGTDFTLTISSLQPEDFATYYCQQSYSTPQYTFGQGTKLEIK
B3: the affinity in assay [1], expressed as Kd, was 370 nM. This molecule also returned a binding score in assay [2] of 1100.

B4: D025 (antibody, V domains shown)
VH: QVQLVESGGGVVQPGRSLRLSCAASGFTFSSYGMHWVRQAPGKGLEWVAVISYDGSNKYYADSVKGRFTISRDNSKNTLYLQMNSLRAEDTAVYYCAKRGQGYCGGDCFSGYFDYWGQGTLVTVSS
VL: not shown
B4: binding in assay [1] was put at a Kd of 172 nM. The molecule also came in with a binding score in assay [2] of over 10000.

B5: D013 (antibody, V domains shown)
VH: QVQLVQSGAEVKKPGASVRISCKTSGYIFAYYFIHWFRQAPGQGPEWMGWINPKSGGTNYAQKFQDRVTMTTDSSITTAFMALRSLRSDDTAVYYCTREGVGTISDAGFGYWGQGTPVTVSS
VL: SYVLTQPPSVSVAPGKTATITCGGNNIGSKSVHWYHQKPGQAPVMVVYNDKERPSGIPERFSGSKSGNTATLTITWVEADDEADYYCQAWDRPSGYVFGTGTKVTVL
In the case of B5, the dissociation constant (Kd) (usually the free concentration of one partner at which half of the binding sites on the other are occupied at equilibrium, for simple one-to-one binding) in assay [1] is 338 nM. Besides, the binding score in assay [2] is 1330.

B6: D070 (antibody, V domains shown)
VH: EVQLVESGGGLVQPGGSLRLSCAASGFTFSSYEMNWVRQAPGKGLEWVSYISSSGSTIYYADSVKGRFTISRDNAKNSLYLQMNSLRAEDTAVYYCARVPRGYYDSSGYYYVGYYFDYWGQGTLVTVSS
VL: DIQLTQSPSFLSASVGDRVTITCRASQGISSYLAWYQQKPGKAPKLLIYAASTLQSGVPSRFSGSGSGTEFTLTISSLQPEDFATYYCQQLNSYTFTFGPGTKVDIK
In assay [1], B6 registered a Kd of 115 nM. Also, in assay [2], the binding score is 716.

B7: C2743 (antibody, V domains shown)
VH: QVQLVQSGAEVKKPGASVKVSCKASGYTFTSYGISWVRQAPGQGLEWMGWISAYNGNTNYAQKLQGRVTMTTDTSTSTAYMELRSLRSDDTAVYYCARDFGELATPLDYWGQGTLVTVSS
VL: EIVLTQSPATLSLSPGERATLSCRASQSVSSYLAWYQQKPGQAPRLLIYDASNRATGIPARFSGSGSGTDFTLTISSLEPEDFAVYYCQQRSNSLTFGGGTKVEIK
As for B7, the Kd in assay [1] is 18.5 nM. This molecule also showed a binding score in assay [2] of 14.3.

B8: D048 (antibody, V domains shown)
VH: QLQLQESGPGLVKPSETLSLTCTVSGGSISSSSYYWGWIRQPPGKGLELIGTIYYSGSTYYNPSLKSRVTISVDTSKNQFSLKLSSVTAADTAVYYCARKGPYYYDRSGYYRPGPIDYWGQGTLVTVSS
VL: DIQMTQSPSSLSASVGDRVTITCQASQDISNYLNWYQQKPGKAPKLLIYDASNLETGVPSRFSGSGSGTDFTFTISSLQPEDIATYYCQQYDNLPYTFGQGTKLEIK
Take B8: in assay [1], the Kd was 23.4 nM. Further, the binding score in assay [2] stood at 4.6.

B9: D067 (antibody, V domains shown)
VH: EVQLVESGGGLVQPGGSLRLSCAASGFIFSGYDMHWVRQAPGKGLEWVSAIGTAGDTYYPGSVKGRFILSRENAKNSLYLQMNSLRAGDTAVYYCARALYRFGELLGYDYWGQGTLVTVSS
VL: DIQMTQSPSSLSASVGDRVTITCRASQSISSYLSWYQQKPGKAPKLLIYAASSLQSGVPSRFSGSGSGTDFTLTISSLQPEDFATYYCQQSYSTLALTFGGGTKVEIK
In assay [1], B9 had a Kd of 183 nM. Further, the binding score in assay [2] is 352.

B10: D125 (antibody, V domains shown)
VH: QVQLQESGPGLVKPSETLSLTCSVSGVSISSYYWSWIRQPPGKGLEWIGYIYYSGSTNYNPSLKSRVTISVDTSKNQFSLKLSSVTAADTAVYYCARVVGDGYNFGYYYYMDVWGKGTTVTVSS
VL: QSVLTQPPSVSAAPGQKVTISCSGSSSNIGNNYVSWYQQLPGTAPKLLIYENNKRPSGIPDRFSGSKSGTSATLGITGLQTGDEADYYCGTWDSSLSAYVFGTGTKVTVL
In the case of B10, binding in assay [1] was characterised by a dissociation constant (Kd) of 103 nM. This molecule also came in with a binding score in assay [2] of 575.

B11: C2690 (antibody, V domains shown)
VH: EVQLVESGGGVVQPGRSLRVSCAASGFTFSSYGMHWVRQAPGKGLEWVAVISYDGSNKYYADSVKGRFSISRDNSKNTLYLQMNSLRAEDTAVYYCAKVISSFGGGSLNYFDYWGQGTLVTVSS
VL: AIRMTQSPSSLSASVGDRVTITCQASQDISNYLNWYQQKPGKAPKLLIYDASNLETGVPSRFSGSGSGTDFTFTISSLQPEDIATYYCQQYDNLPITFGQGTRLEIK
As for B11, the affinity in assay [1], expressed as Kd, was 103 nM. The binding score in assay [2] was 381.

B12: D068 (antibody, V domains shown)
VH: EVQLVESGGGLVKPGGSLRLSCAASGFTFSSYSMNWVRQAPGKGLEWVSSISSSSSYIYYADSVKGRFTISRDNAKNSLYLQMNSLRAEDTAVYYCARVDSSGWYTGDAFDIWGQGTMVTVSS
VL: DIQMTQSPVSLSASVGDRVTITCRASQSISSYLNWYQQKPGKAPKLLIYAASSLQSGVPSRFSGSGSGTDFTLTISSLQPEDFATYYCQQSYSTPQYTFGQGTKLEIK
The molecule B12 yielded a Kd in assay [1] of 196 nM. For the same molecule, the binding score in assay [2] stood at 286.

B13: D146 (antibody, V domains shown)
VH: QVQLVESGGGVVQPGRSLRLSCAASGFTFSSYGMHWVRQAPGKGLEWVAVISYDGSNKYYADSVKGRFTISRDNSKNTLYLQMNSLRAEDTAVYYCAKSLGSYCSSTSCYGGSFDYWGQGTLVTVSS
VL: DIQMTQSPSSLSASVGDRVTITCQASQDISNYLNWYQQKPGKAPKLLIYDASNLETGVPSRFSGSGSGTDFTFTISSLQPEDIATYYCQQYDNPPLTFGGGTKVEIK
With B13, the dissociation constant Kd in assay [1] is 98.1 nM. Moreover, the binding score in assay [2] was 574.

B14: D144 (antibody, V domains shown)
VH: EVQLVESGGGLVQPGGSLRLSCAASGFTFSSYWMHWVRQAPGKGLVWVSRINSDGSSTSYADSVKGRFTISRDNAKNTLYLQMNSLRAEDTAVYYCARVPDTAMVTGINYYYYYGMDVWGQGTTVTVSS
VL: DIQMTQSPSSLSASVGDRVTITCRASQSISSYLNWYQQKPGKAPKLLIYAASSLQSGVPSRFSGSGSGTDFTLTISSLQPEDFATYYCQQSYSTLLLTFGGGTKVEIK
B14: binding in assay [1] was characterised by a dissociation constant (Kd) of 19.2 nM. In assay [2], this molecule showed a binding score of 24.8.

B15: D006 (antibody, V domains shown)
VH: EVQLVQSGAEVKKPGESLKISCKGSGYSFTSYWIGWVRQMPGKGLEWMGIIYPGDSDTRYSPSFQGQVTISADKSISTAYLQWSSLKASDTAMYYCASFGRNDAFDIWGQGTMVTVSS
VL: not shown
In assay [1], B15 had a Kd of 8.76 nM. For the same molecule, in assay [2], the binding score was 41.6.

B16: C2704 (antibody, V domains shown)
VH: EVQLVESGGDLVQPGGSLRLSCAASGFTFSTSWMHWVRQAPGKGLVWVSHINGDGSTTIYADSVKGRFTISRDNAKNTLYLQMNTLRAEDTAVYYCARNTGTHFDYWGQGTLVTVSS
VL: QSALTQPASVSGSPGQSITISCTGTSSDVGRYNYVSWYQQHPGKAPKVMIYDVSNRPSGVSNRFSGSKSGNTASLTISGLQAEDEADYYCSSYTSSSPWVFGGGTKLTVL
In assay [1], B16 gave a Kd of 205 nM. Besides, the binding score in assay [2] is 410.

B17: C2723 (antibody, V domains shown)
VH: QVQLQESGPGLVKPSETLSLTCTVSGGSVSSGSYYWSWIRQPPGKGLEWIGYIYYSGSTNYNPSLKSRVTISVDTSKNQFSLKLSSVTAADTAVYYCARGALYDSSGYYPELPVYWGQGTLVTVSS
VL: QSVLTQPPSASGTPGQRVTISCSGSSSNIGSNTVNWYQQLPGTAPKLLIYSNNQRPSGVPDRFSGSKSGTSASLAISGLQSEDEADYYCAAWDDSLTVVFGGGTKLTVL
Consider B17, for which the Kd in assay [1] is 20.9 nM. In assay [2], the binding score is 39.7.

B18: D101 (antibody, V domains shown)
VH: EVQLVESGGGLVQPGGSLRLSCAASGFTFSNYDMHWVRQATGKGLEWVSTIGTVGDTYYPGSVKGRFTISRENAKNSLYLQMNSLRAGDTAVYYCARGGGMTTVTLDVWGQGTTVTVSS
VL: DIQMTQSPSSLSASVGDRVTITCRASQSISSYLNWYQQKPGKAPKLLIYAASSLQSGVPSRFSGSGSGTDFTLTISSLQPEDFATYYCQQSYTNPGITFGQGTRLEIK
Turning to B18, the Kd in assay [1] was 46.9 nM. The same molecule came in with a binding score in assay [2] of 8.93.

B19: D051 (antibody, V domains shown)
VH: QVQLQQWGAGLLKPSETLSLTCAVYGGSFSDYYWTWIRQAPGKGLEWIGEINHSGSTNYNPSLKSRVTISVDTSKSQFSLSLTSVTAADTAVYYCARGRRYCNSLSCPYYFYFYMDVWDKGTTVTVSS
VL: DIQMTQSPSSVSASVGDRVTITCRASQGISSWLAWYQQKPGKAPKLLIYAASSLQSGVPSRFSGSGSGTDFTLTISSLQSEDFATYYCQQANSFPRTFGQGTRLEIK
Regarding B19, the Kd in assay [1] was found to be 2240 nM. In assay [2], this molecule came in with a binding score of over 10000.

B20: D124 (antibody, V domains shown)
VH: QVQLQQWGAGLLKPSETLSLTCAVYGGPFTGYSWTWIRQSPGKGLEWIGEINHSGSTSYNPSLQSRVTFSIDTSKNQFSLELSSVTAADTAVYFCARGNRNRYHTSDWYYYGMDVWGQGTTVTVSS
VL: DIQMTQSPSSLSAYVGDRVTITCRASQGINTYLAWYQQKPGKVPRLLIYGASTLQSGVPSRFSGSGSGTEFTLTISSLQPEDIATYYCQKYNSAPRTFGQGTKVEIK
In assay [1], B20 yielded a Kd of 219 nM. For the same molecule, in assay [2], the binding score came out at 2540.

B21: D041 (antibody, V domains shown)
VH: EVQLVQSGAEVKKPGESLKISCKGSGYSFTSYWIGWVRQMPGKGLEWMGIIYPGDSDTRYSPSFQGQVTISADKSISTAYLQWSSLKASDTAMYYCARHPTVTGWFDPWGQGTLVTVSS
VL: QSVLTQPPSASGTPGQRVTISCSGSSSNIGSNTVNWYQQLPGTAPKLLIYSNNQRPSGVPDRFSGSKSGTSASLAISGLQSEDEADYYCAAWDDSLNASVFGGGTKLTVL
The molecule B21 showed a Kd in assay [1] of 13.2 nM. In addition, in assay [2], the binding score is 33.

B22: D066 (antibody, V domains shown)
VH: QVQLVQSGAEVKKPGASVKVSCKASEYTFTNYYMHWVRQAPGQGLEWMGIINPSAGSTSYAQKFQGRVRMTSDTSTNTVYMELSSLRSEDTAVYYCARGVLVPAAEYYFDYWGQGTLVTVSS
VL: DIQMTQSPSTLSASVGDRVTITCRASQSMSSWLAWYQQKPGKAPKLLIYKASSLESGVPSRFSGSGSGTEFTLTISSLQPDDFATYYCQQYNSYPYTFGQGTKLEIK
Consider B22, for which the dissociation constant (Kd) in assay [1] came to 7.6 nM. Further, in assay [2], the binding score turned out to be 11.9.

B23: D002 (antibody, V domains shown)
VH: EVQLVQSGAEVKKPGESLKISCKASGYNFTTSWIGWVRQMPGKGLEWMGIIYPGDFDTTYSPSFQGQVTISADKSISTAYLQWSSLKASDTAMYYCARVGPTAGTDGYNYLDWYFDLWGRGTLVTVSS
VL: SYELTQPPSVSVSPGQTARITCSGDALPKQFSYWYQQKPGQAPVLVIYKDNERPSGIPERFSGSSSGTTVTLTISGVQAEDEADYYCQSADSISWVFGGGTKLTVL
Consider B23, for which, in assay [1], the Kd is 465 nM. Also, the binding score in assay [2] came out at 3640.
